# Experiments:
# GHSR-RLG (hGHSR) = molecular target: T1, GHSR-RLG (hGHSR) (Homo sapiens, UniProt Q92847); assay: BRET assay, HEK cells transiently co-transfected with GHSR-RLG and a Gγ construct; format: cell-based; set-up: key to the marks not given beside the values; conditions: cells coexpressing GHSR-RLG and the Gγ construct, exposed to Ghrelin
# T1 construct: 37; hGHSR; RLG; Gαq; 90, 91; FP-Gγ9; 3, 4; 13; expressed in transfected cells; host or cells: HEK cells, transient
# [1] = molecular target: T2, A2AR-RGL (human A2A receptor) (Homo sapiens, UniProt P29274); assay: BRET assay, HEK cells transiently co-transfected with A2AR-RGL and a Gγ construct; format: cell-based; set-up: key to the marks not given beside the values; conditions: cells coexpressing A2AR-RGL and the Gγ construct, exposed to Adenosine
# T2 construct: ID; NOs; expressed in transfected cells; host or cells: HEK cells, transient
# T2 sequence (P29274 with tags, fused parts or gaps): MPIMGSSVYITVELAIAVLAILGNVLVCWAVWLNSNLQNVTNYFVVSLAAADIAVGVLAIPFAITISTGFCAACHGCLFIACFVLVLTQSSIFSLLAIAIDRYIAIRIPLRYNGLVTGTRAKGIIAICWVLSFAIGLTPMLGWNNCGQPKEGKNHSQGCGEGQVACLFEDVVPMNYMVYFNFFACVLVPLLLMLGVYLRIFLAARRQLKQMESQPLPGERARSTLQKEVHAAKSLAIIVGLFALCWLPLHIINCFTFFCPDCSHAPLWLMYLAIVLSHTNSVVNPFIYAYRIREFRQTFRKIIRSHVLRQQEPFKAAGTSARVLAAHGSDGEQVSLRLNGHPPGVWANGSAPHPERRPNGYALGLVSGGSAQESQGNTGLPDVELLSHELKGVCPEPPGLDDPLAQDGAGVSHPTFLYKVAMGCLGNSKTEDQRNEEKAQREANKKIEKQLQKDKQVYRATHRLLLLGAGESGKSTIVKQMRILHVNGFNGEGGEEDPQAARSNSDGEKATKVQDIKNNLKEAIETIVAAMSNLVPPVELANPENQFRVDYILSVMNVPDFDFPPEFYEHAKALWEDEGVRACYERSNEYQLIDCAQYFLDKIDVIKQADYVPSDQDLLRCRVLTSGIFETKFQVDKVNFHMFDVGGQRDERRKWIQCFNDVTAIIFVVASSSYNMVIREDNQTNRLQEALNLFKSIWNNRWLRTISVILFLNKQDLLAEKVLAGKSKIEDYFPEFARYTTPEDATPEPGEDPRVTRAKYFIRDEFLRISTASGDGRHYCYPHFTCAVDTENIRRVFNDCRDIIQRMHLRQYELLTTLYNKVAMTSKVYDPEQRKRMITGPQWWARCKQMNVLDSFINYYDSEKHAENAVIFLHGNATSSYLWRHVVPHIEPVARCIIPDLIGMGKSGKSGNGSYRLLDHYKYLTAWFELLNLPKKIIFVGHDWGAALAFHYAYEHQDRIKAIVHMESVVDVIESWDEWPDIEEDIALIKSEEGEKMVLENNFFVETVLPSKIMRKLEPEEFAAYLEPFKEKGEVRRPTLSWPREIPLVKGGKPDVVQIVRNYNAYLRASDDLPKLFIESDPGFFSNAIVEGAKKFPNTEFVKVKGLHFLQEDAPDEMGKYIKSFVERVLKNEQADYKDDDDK
# [2] = molecular target: T3, M1R-GLG3 (human M1 receptor) (Homo sapiens, UniProt P11229); assay: BRET assay, HEK cells transiently co-transfected with M1R-GLG3 and a Gγ construct; format: cell-based; set-up: key to the marks not given beside the values; conditions: cells coexpressing M1R-GLG3 and the Gγ construct, exposed to Acetylcholin
# T3 construct: 35; hM1R; RGLG-3; Gαq; 86, 87; FP-Gγ9; 3, 4; 11A, 11B; expressed in transfected cells; host or cells: HEK cells, transient
# T3 sequence (P11229 with tags, fused parts or gaps): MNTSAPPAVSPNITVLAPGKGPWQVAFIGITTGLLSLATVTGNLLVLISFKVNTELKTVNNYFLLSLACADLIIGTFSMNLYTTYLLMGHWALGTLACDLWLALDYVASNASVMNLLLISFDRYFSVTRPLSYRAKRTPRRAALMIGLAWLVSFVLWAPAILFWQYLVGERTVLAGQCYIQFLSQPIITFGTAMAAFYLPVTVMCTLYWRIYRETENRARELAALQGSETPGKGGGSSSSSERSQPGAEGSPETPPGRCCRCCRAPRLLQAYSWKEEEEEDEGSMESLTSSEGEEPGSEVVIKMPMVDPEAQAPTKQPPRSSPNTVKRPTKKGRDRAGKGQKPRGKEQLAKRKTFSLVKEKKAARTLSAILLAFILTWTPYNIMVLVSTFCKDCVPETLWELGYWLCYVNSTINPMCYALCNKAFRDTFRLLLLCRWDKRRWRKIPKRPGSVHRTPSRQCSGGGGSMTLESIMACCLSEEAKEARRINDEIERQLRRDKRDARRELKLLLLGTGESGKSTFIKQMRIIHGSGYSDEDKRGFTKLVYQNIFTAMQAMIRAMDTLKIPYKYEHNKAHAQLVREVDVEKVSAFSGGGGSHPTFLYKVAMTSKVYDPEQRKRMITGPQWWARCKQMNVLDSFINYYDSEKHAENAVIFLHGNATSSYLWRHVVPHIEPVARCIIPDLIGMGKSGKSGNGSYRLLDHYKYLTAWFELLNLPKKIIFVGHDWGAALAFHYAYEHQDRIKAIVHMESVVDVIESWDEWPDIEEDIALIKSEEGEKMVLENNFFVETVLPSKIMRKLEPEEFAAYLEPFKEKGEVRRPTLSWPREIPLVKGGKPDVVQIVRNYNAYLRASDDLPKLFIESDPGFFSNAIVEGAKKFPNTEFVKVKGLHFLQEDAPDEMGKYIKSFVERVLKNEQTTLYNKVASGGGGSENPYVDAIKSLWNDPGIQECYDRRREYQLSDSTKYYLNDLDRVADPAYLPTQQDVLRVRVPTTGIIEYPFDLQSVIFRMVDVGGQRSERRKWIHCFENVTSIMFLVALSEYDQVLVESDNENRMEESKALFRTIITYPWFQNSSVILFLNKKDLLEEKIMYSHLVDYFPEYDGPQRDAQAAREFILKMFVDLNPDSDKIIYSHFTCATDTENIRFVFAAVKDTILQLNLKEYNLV
# [3] = molecular target: T4, GIPR-L-G (human GIP receptor) (Homo sapiens, UniProt P48546); assay: BRET assay, HEK cells transiently co-transfected with GIPR-L-G and a Gγ construct; format: cell-based; conditions: cells coexpressing GIPR-L-G and the Gγ construct, exposed to GIP
# T4 construct: ID; NOs; expressed in transfected cells; host or cells: HEK cells, transient
# [4] = molecular target: T5, M4R-GLG2 (human muscarinic acetylcholine receptor M4) (Homo sapiens, UniProt P08173); assay: BRET assay, HEK cells transiently co-transfected with M4R-GLG2 and a Gγ construct; format: cell-based; set-up: key to the marks not given beside the values; conditions: cells coexpressing M4R-GLG2 and the Gγ construct, exposed to ACh
# T5 construct: ID; NOs; expressed in transfected cells; host or cells: HEK cells, transient
# [5] = molecular target: T6, GLP1R-L-G (human GLP-1 receptor) (Homo sapiens, UniProt P43220); assay: BRET assay, HEK cells transiently co-transfected with GLP1R-L-G and a Gγ construct; format: cell-based; conditions: cells coexpressing GLP1R-L-G and the Gγ construct, exposed to GLP-1
# T6 construct: ID; expressed in transfected cells; host or cells: HEK cells, transient
# T6 sequence (P43220 with tags, fused parts or gaps): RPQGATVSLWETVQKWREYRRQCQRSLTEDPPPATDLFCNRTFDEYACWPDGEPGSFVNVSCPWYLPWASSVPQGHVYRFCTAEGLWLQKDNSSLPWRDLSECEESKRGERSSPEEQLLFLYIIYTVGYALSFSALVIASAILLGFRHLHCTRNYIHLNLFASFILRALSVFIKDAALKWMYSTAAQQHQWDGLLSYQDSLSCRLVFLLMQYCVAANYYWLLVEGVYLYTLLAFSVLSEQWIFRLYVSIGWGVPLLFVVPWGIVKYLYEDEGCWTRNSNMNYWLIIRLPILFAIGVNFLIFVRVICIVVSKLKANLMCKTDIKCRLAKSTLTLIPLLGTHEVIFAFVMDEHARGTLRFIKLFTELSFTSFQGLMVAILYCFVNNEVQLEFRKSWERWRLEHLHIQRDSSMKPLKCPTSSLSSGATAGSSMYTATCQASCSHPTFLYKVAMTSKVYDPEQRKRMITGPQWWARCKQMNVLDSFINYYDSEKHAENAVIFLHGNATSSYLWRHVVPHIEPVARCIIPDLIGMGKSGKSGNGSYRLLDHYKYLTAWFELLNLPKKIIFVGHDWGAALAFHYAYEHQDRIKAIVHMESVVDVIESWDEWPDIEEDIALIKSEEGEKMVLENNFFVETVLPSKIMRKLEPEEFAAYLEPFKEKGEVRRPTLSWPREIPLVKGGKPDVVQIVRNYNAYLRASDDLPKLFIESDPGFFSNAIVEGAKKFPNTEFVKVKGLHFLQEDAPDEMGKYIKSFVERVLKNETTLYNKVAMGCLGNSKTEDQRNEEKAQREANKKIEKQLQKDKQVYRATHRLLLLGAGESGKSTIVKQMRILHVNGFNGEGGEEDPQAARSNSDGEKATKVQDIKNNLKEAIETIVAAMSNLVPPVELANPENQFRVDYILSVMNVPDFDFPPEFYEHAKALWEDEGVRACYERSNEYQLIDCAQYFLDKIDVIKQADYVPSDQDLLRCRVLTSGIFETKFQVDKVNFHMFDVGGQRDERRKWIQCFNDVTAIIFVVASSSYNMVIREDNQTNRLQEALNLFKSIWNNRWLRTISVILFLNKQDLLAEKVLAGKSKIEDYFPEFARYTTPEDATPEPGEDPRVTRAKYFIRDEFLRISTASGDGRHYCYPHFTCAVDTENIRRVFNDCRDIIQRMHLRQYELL
# [6] = molecular target: T7, GCGR-RLG (glucagon receptor) (Homo sapiens, UniProt P47871); assay: BRET assay, HEK cells transiently co-transfected with GCGR-RLG and a Gγ construct; format: cell-based; set-up: key to the marks not given beside the values; conditions: cells coexpressing GCGR-RLG and the Gγ construct, exposed to Glucagon
# T7 construct: 39; GCGR; RLG; Gαs; 94, 95; FP-Gγ9; 3, 4; 15; expressed in transfected cells; host or cells: HEK cells, transient
# [7] = molecular target: T8, M4R RGLG-2 with Gαo C351S (Homo sapiens, UniProt P08173+P09471, C351S); assay: BRET assay, chimeric M4R with PTX-insensitive mutant (C351S) of Gαo in the RGLG-2 fusion construct; format: cell-based; conditions: same conditions as FIG. 10B
# T8 construct: ID; NOs; expressed in transfected cells
# T8 sequence (P08173+P09471 fused P09471:C351S): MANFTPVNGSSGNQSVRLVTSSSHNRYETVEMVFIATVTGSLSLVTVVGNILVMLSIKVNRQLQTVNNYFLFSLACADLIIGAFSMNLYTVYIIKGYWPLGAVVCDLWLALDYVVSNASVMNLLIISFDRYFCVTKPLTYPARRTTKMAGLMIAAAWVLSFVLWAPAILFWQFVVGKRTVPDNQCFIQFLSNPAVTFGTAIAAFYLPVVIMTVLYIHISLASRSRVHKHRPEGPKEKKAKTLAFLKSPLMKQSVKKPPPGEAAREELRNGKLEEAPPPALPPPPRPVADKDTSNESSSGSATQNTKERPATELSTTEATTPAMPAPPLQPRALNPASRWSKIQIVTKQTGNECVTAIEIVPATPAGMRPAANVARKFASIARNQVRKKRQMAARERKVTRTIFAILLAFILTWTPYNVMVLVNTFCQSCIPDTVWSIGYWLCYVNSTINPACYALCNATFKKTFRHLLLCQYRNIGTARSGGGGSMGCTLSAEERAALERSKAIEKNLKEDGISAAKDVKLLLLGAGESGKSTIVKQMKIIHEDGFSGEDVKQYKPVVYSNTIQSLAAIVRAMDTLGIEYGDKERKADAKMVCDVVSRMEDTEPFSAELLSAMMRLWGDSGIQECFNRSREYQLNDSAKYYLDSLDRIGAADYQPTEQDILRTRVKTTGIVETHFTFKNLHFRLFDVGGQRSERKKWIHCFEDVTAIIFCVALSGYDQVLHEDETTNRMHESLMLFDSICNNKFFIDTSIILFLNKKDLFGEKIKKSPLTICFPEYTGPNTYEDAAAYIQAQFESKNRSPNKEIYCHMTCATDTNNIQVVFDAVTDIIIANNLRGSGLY
# Experimental: Cells lines were prepared as described above (Examples 13-34).
# [8] = molecular target: human M1 receptor (M1R) RGLG-3 (Homo sapiens, UniProt P11229)
# Experimental: Cells co-express a construct comprising a human M1 receptor (M1R) fused to a split Gαq protein harboring a luminescent protein (construct RGLG-3, FIG. 2C, Table 6) and the FP-Gγ9 construct (as above).
# 5 or 10 minutes after the addition of coelenterazine H to the cells, the read plate is placed in the FLIPR tetra and the measurement begins.
# A second plate is a compound plate, containing a mix of an agonist at its EC20 or EC80 and candidate agents to be tested if the protocol run on the FLIPR tetra is a one-addition (or co-addition) protocol (as in FIGS. 3A, 3B, 4, 5A, 6, 7B, 7C, 10B, 10C, 11B, 13, 14, 19 and 20). Alternatively, a two-addition protocol can be run on the FLIPR tetra, containing two compound plates, of which the first one usually contains different candidate agents and the second one an agonist at its EC20 or EC80 (as in FIGS. 5B, 5C, 7A, 9, 10A, 11A, 12, 15, 16, and 18). […]
# The camera is adjusted in such a way that the gain is set to a maximum of 28,000× and the shutters are opened 100%. […] The read interval (emission filter 1, emission filter 2) is adjusted to the minimal value that results from the addition of the two exposure times (=2×0.1 to 3 seconds) plus the time needed to move the filters from position 1 to position 2 (0.3 sec), resulting in a maximal read frequency of 0.5 seconds (2 Hz). […]
# chimeric M4R (RGLG-2) = molecular target: T9, chimeric M4R (RGLG-2) (Homo sapiens, UniProt P08173); assay: BRET assay of the invention, cells co-expressing chimeric M4R (RGLG-2) and FP-Gγ9; format: cell-based; conditions: cells incubated over night with 100 ng/ml PTX
# T9 construct: ID; NOs; expressed in transfected cells
# Experimental: The same cells as described for FIG. 10 A were used. […] The decrease of the signal below baseline in the PTX-treated condition confirms a constitutive activity that has been described for the M4R. […]
# A typical experiment has the following sequence.
# The assay of the present invention was compared with a state of the art calcium based assay. […] In calcium-based assay, a calcium flux is measured in cells co-expressing recombinant M4R and modified Gαq. In the assay in accordance with the present invention, BRET in measured in cells co-expressing a chimeric M4R according to RGLG-2 (construct and cell-line from FIG. 2C, Table 6) and FP-Gγ9 (as described in FIG. 10A). The data represent mean values and they are normalized to the maximal effect of the orthosteric agonist after the subtraction of the basal values.
# T1 sequence (Q92847 with tags, fused parts or gaps): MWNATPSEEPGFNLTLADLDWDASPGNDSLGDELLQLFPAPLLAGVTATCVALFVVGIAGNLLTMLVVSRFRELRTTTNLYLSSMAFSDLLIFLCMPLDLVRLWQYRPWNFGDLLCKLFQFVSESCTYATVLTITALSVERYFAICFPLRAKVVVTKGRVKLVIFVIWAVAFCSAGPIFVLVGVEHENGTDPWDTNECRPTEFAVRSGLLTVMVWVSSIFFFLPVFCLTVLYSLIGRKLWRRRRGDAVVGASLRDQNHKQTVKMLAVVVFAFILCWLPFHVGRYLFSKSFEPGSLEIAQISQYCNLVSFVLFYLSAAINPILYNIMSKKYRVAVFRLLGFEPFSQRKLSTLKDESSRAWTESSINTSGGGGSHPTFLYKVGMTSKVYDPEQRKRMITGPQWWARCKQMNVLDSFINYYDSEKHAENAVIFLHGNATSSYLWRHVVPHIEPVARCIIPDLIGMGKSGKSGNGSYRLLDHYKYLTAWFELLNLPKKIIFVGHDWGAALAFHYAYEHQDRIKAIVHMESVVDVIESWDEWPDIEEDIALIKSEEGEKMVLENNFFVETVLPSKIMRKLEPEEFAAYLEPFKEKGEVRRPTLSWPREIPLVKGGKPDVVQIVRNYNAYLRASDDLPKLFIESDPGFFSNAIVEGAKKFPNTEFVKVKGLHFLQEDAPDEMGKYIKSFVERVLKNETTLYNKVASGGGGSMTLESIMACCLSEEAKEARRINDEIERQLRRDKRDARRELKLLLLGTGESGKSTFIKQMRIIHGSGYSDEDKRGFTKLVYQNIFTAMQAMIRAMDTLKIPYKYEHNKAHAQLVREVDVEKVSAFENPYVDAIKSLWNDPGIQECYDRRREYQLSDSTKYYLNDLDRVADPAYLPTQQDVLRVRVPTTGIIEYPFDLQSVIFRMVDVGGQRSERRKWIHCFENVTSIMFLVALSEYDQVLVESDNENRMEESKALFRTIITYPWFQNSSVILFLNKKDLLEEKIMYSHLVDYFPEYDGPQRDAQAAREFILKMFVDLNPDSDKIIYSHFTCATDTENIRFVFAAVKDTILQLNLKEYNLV
Substance,HTS compat. (GHSR-RLG (hGHSR)),HTS compat. [1],HTS compat. [2],HTS compat. [3],HTS compat. [4],HTS compat. [5],HTS compat. [6],"effect on BRET signal changes in response to Ach, C351S Gαo mutant [7]",effect on BRET signal changes in response to Ach [8],effect on BRET signal changes in response to Ach (chimeric M4R (RGLG-2))
"FP-Gγ9: fusion protein of yellow fluorescent protein YPet and human G-protein gamma9, SEQ. ID. NOs. 3, 4",++,++,++,++,++,++,++,–,–,–
PTX,–,–,–,–,–,–,–,rescued by the C351S substitution,no effect on the BRET signal changes,effectively blocks the BRET signal changes

# — US20130035256A1, “Chimeric Polypeptides Useful in Proximal and Dynamic High-Throughput Screening Methods” (ADDEX PHARMA SA, priority 2010, published 2013)
